Reference: patent US20240294608A1, “ELP FUSION PROTEINS FOR CONTROLLED AND SUSTAINED RELEASE” (ImmunoForge Co., LTD., priority 2016, published 2024)
Blank lines part the entries; values can stand above or below the molecule they belong to.

How the values were obtained:
GLP-2 receptor [1] = assay: cell-based or functional assay
[2] = system: normal mice (strain FVB/nj); assay: Linear growth of normal mice, daily injection for three weeks; format: in vivo; settings: injected daily for three weeks, mice 3 weeks of age, vs saline; FIG. 3A-C
Procedure: Effect on growth was determined by measuring nose to tail length (A), nose to anus length (B), and tail length (C). The graphs show the mean change in growth versus baseline over the 3 week period.
The above constructs were injected daily in normal mice (strain FVB/nj) for three weeks. The mice were 3 weeks of age at the start of the experiment. The effect on linear growth of the mice was determined by measuring tail length, nose to anal length and nose to tail length after each week of dosing in comparison to a control group injected with normal saline. […] There was no significant effect on body weight.

Male Sprague Dawley rats = assay: Small intestine weight and histology after eleven-day subcutaneous dosing in rats; format: in vivo
Procedure: Dosing was as follows: Vehicle group dosed with saline daily; PE0503 Q1D dosed with PE0503 at 1.3 mg/kg once per day; PE0503 Q2D dosed with PE0503 at 5.1 mg/kg every other day; PE0503 Q4D dosed with PE0503 at 20.5 mg/kg once every four days; GLP-2(A2G) TID dosed […] with 0.1 mg/kg GLP2(A2G).
Male Sprague Dawley rats (200-220 g, n=12/group) were injected subcutaneously with PE0503 or GLP-2 (A2G) peptide over an eleven-day dosing period as shown in Table 5.
The animals were sacrificed on day 12 and a mid-line incision was made, the small intestines were removed, stretched to their maximum length and measured. The fecal material was then flushed from the lumen and the small intestine weight was recorded.

GLP-2 receptor [3] = molecular target: T1, GLP-2 receptor (Homo sapiens, UniProt O95838); assay: Cell-based cAMP potency assay; settings: read-out: ECso
T1 sequence (O95838 1-553): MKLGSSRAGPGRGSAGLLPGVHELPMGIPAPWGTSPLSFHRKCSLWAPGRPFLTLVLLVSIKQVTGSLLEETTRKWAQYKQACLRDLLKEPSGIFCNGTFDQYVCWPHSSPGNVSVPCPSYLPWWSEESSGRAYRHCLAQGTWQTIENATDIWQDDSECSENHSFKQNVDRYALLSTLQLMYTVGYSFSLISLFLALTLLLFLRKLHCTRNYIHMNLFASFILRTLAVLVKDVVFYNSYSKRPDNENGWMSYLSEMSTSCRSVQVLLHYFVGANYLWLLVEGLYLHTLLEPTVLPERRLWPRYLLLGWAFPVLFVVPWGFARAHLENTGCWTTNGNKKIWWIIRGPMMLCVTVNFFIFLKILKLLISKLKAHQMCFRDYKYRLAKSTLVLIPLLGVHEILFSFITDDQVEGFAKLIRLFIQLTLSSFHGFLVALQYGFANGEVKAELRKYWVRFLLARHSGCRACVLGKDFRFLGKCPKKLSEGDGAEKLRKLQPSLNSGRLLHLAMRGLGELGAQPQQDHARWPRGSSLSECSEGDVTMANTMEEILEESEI

EC50, cell-based cAMP potency assay (GLP-2 receptor [1]): 1.75 nM
Molecule: HGDGSFSDEMNTILDNLAARDFINWLIQTKITD (ligand, part only; not given: ELP carrier, part only) [PE0503]

B1: PE9306: CNP37 on N-terminus of ELP1-120 with Cathepsin K site 1 (Arg-Lys-Pro-Arg/Gly); SEQ ID NOs: 125 & 126 (protein)
chain: QEHPNARKYKGANKKGLSKGCFGLKLDRIGSMSGLGCRKPRGVPGVGVPGVGVPGGGVPGAGVPGVGVPGVGVPGVGVPGGGVPGAGVPGGGVPGVGVPGVGVPGGGVPGAGVPGVGVPGVGVPGVGVPGGGVPGAGVPGGGVPGVGVPGVGVPGGGVPGAGVPGVGVPGVGVPGVGVPGGGVPGAGVPGGGVPGVGVPGVGVPGGGVPGAGVPGVGVPGVGVPGVGVPGGGVPGAGVPGGGVPGVGVPGVGVPGGGVPGAGVPGVGVPGVGVPGVGVPGGGVPGAGVPGGGVPGVGVPGVGVPGGGVPGAGVPGVGVPGVGVPGVGVPGGGVPGAGVPGGGVPGVGVPGVGVPGGGVPGAGVPGVGVPGVGVPGVGVPGGGVPGAGVPGGGVPGVGVPGVGVPGGGVPGAGVPGVGVPGVGVPGVGVPGGGVPGAGVPGGGVPGVGVPGVGVPGGGVPGAGVPGVGVPGVGVPGVGVPGGGVPGAGVPGGGVPGVGVPGVGVPGGGVPGAGVPGVGVPGVGVPGVGVPGGGVPGAGVPGGGVPGVGVPGVGVPGGGVPGAGVPGVGVPGVGVPGVGVPGGGVPGAGVPGGGVPGVGVPGVGVPGGGVPGAGVPGVGVPGVGVPGVGVPGGGVPGAGVPGGGVPGWP
modifications: CNP37 CatK ELP1-120 fusion PE9306
rate of linear growth (tail length, nose to anal length, nose to tail length) [2]: faster rate of linear growth

EC50 (GLP-2 receptor [3]): 1.75 nM
B2: PE0503: GLP-2 sequence with A2G mutation on the N-terminus of the ELP1-120 sequence (protein)
chain: HGDGSFSDEMNTILDNLAARDFINWLIQTKITDVPGVGVPGVGVPGGGVPGAGVPGVGVPGVGVPGVGVPGGGVPGAGVPGGGVPGVGVPGVGVPGGGVPGAGVPGVGVPGVGVPGVGVPGGGVPGAGVPGGGVPGVGVPGVGVPGGGVPGAGVPGVGVPGVGVPGVGVPGGGVPGAGVPGGGVPGVGVPGVGVPGGGVPGAGVPGVGVPGVGVPGVGVPGGGVPGAGVPGGGVPGVGVPGVGVPGGGVPGAGVPGVGVPGVGVPGVGVPGGGVPGAGVPGGGVPGVGVPGVGVPGGGVPGAGVPGVGVPGVGVPGVGVPGGGVPGAGVPGGGVPGVGVPGVGVPGGGVPGAGVPGVGVPGVGVPGVGVPGGGVPGAGVPGGGVPGVGVPGVGVPGGGVPGAGVPGVGVPGVGVPGVGVPGGGVPGAGVPGGGVPGVGVPGVGVPGGGVPGAGVPGVGVPGVGVPGVGVPGGGVPGAGVPGGGVPGVGVPGVGVPGGGVPGAGVPGVGVPGVGVPGVGVPGGGVPGAGVPGGGVPGVGVPGVGVPGGGVPGAGVPGVGVPGVGVPGVGVPGGGVPGAGVPGGGVPGVGVPGVGVPGGGVPGAGVPGVGVPGVGVPGVGVPGGGVPGAGVPGGGVPGWP
modifications: pPE0503-GLP-2(A2G)-ELP1-120
small intestine weight (Male Sprague Dawley rats; compared to placebo, day 12, even when dosed every fourth day (Q4D), FIG. 4): highly significant increase
villus height (histological analysis of sections of the small intestine) (Male Sprague Dawley rats; compared to vehicle (saline)): clear increase
